Assay results reported in article PMC8293630.

How the values were obtained:
[1] = biological target: 1G4 TCRαβ with βA291 (αWT, β Y291A), β-HA and α-FLAG; conditions: scale: nM
[2] = biological target: 1G4 TCRαβ wild type (HLA-A2-restricted TCR specific for NY-ESO-1 157-165), β-HA and α-FLAG; conditions: scale: nM
[3] = biological target: 1G4 TCRαβ with βA291 (αWT, β Y291A), β-HA and α-FLAG; assay: co-IP; DDM stability assay (DSA): J76 cells lysed in 0.5% DDM, 150 mM NaCl, 20 mM Tris pH 8.0, 30 min on ice; post-nuclear lysate on anti-HA agarose beads (β-HA) 1 h at 4°C; quantitative immunoblot of β (HA), ε, γ, δ, ζ; ratios normalised to WT; also after A770041 treatment of the cells
[4] = biological target: wtc51 TCRαβ (1G4 variant with four mutations in βCDR2), β-HA, in J76 cells; assay: pull-down; ζ recovered with ligand-engaged TCR: (9V-A2)4-His bound to intact cells (37°C or 0°C, ± A770041), 0.5% DDM lysis, capture on HisPur cobalt resin; ζ/β2 compared with non-stimulated anti-HA pull-down (= 1)
[5] = biological target: QM-α TCRαβ (1G4 variant with mutations in αCDR2, βCDR2 and βCDR3), β-HA, in J76 cells; assay: as above
[6] = biological target: 1G4 TCRαβ wild type (HLA-A2-restricted TCR specific for NY-ESO-1 157-165), β-HA and α-FLAG; assay: co-IP; DDM stability assay (DSA): J76 cells lysed in 0.5% DDM, 150 mM NaCl, 20 mM Tris pH 8.0, 30 min on ice; post-nuclear lysate on anti-HA agarose beads (β-HA) 1 h at 4°C; quantitative immunoblot of β (HA), ε, γ, δ, ζ; ratios normalised to WT; also after A770041 treatment of the cells
[7] = biological target: wtc51 TCRαβ (1G4 variant with four mutations in βCDR2), β-HA, in J76 cells

**Q.** With “6V-HLA-A2 tetramer on phycoerythrin-conjugated streptavidin (from UniProt P61769 21-119) (peptide-MHC)” as the substance, how does the pErk MFI (flow cytometry) of CD8- J76 cells against (6V-A2)4 nM, EC50 of the non-linear regression fit [1] read?
**A.** Its pErk MFI (flow cytometry) of CD8- J76 cells against (6V-A2)4 nM, EC50 of the non-linear regression fit is 19.

**Q.** And the pErk MFI (flow cytometry) of CD8- J76 cells against (6V-A2)4 nM, EC50 of the non-linear regression fit [2]?
**A.** The pErk MFI (flow cytometry) of CD8- J76 cells against (6V-A2)4 nM, EC50 of the non-linear regression fit was 19.5.

**Q.** With “CD3γ, endogenous in J76 Jurkat cells (from UniProt P09693 23-182) (natural protein)” as the substance, how does the reduction of recovery against 1G4-WT [3] read?
**A.** The reduction of recovery against 1G4-WT was 40%.

**Q.** How did the reduction of recovery against 1G4-WT [3] turn out when “CD3δ, endogenous in J76 Jurkat cells (from UniProt P04234 22-171) (natural protein)” was run?
**A.** Its reduction of recovery against 1G4-WT is 10%.

**Q.** How did the ε/βT ratio (1G4-WT = 1) (ratio to 1G4-WT) [3] turn out when “CD3ε, endogenous in J76 Jurkat cells (from UniProt P07766 23-207) (natural protein)” was run?
**A.** The ε/βT ratio (1G4-WT = 1) (ratio to 1G4-WT) was 0.5.

**Q.** What does the source list for “CD3ζ (ζζ), endogenous in J76 Jurkat cells (from UniProt P20963-1 22-164) (natural protein)”?
**A.** ζ/β2 ratio (1G4-WT = 1) (ratio to 1G4-WT) [3]: 0.2; ζ/β2 ratio of liganded against unliganded TCR (= 1) (ratio to unliganded wtc51) [4]: 0.5; reduction of the ζ/β2 ratio of liganded against unliganded TCR [5]: 40%

**Q.** With “CD3ζ I38A expressed in J76-1G4WT-ζKO cells (from UniProt P20963-1 22-164) (natural protein)” as the substance, how does the ζ/β2 ratio (ζWT = 1) [6] read?
**A.** Its ζ/β2 ratio (ζWT = 1) is 0.05 ratio to ζWT.

**Q.** Which ζ/β2 ratio (ζWT = 1) [6] does the source give for “CD3ζ I41A expressed in J76-1G4WT-ζKO cells (from UniProt P20963-1 22-164) (natural protein)” here?
**A.** The ζ/β2 ratio (ζWT = 1) was 0.25 ratio to ζWT.

**Q.** Which pErk immunoblot of J76 wtc51 cells, dose response of sm-9V-A2 (Figure S7F) [7] does the source give for “soluble monovalent 9V-HLA-A2 (biotinylated pMHC monomer) (from UniProt P61769 21-119) (peptide-MHC)” here?
**A.** Its pErk immunoblot of J76 wtc51 cells, dose response of sm-9V-A2 (Figure S7F) is 3 nM.
